# Assay: yeast display, Sf9 membrane polyspecificity reagent, FACS + sequencing; frameworks hold sequencing errors
# Outline: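 Sorting gates, low and high (top ~1%), were placed on anti-HA fluorescence to track expression and on streptavidin fluorescence to track reagent binding. A clone's polyreactivity label is taken from the gate it came out of. The reagent was 10% biotinylated, detergent-solubilized Sf9 membrane, applied for 1 hour at 4 °C to galactose-induced yeast display cells.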
row,Sequence,polyreactivity (PSR sort gate)
1,QVQLVESGGGLVQAGGSLRLSCAPSGRIIYRYAIGWYRQAPRKETDLVAAITIGGRTNYADSVKGRFTISRDNANNPVYLEMISLKPEDTAVYYCAVVLYTRYPPRVRYYYWGQGTQVTVSS,high polyreactivity
2,QVQLVESGGGLVQAGGSLRLSCAASGSIFVENAMGWYRQAPGKERELVAAISSDASTNYADSVKGRFTISRDNAKNTVYLQMNSLKPEDTAVYSCAAGYNPHGQYDYWGQGTQVTVSS,low polyreactivity
3,QVQLVESGGGLVQAGGSLRLSCAASGSTFRTNVMGWYRQAPGKERELVAAITKRGSITYYADSVKGRFTISRDNAKNTVYLQMNSLKPEDTAVYYCAARKVAVRGYGYWGQGTQVTVSS,high polyreactivity
4,QVQLVESGGGLVQAGGSLRLSCAAYGRIFNEYAMGWYRQAPGKERELVAAITYSDDSTYYADSVKGRFTISRDNAKNTVYLQMISLKPEDTAVYYRNADTPVWDGHAYPVDYWGQGTQVTVSS,low polyreactivity
5,QVQLVQSCRVLLQARGSHTLSCADSGTTFGINANGCYTHSPGKERELVAAITFISGSTNYADSVKGRFTISRDNAKNTVYLQMNSLKPEDTAVYYCAADSVYYAGYDVDYWGQGTQVTVSS,low polyreactivity
6,QVQLVESGGGLVQAGGSLRLSCAASGSIFEGYAMGWYRQAPGKERELVARITSDDDSTYYADSVKGRFTISRDNAKNTVYLQMNSLKPEDTAVYYCNADYYCTSLAMDSWGQGTQVTVSS,low polyreactivity
7,QVQLVESGGGLVQAGGSLRLSCAASGLIFSYYAMGWYRQAPGKERELVAAITGSGGTTYYADSVMGRFTISRDNANNTVYLQMNSLKPEDTAVYYCATPPPEVWQRWYREYDYWGQGTQVTVSS,low polyreactivity
8,QVQLVESGGGLVQAGGSLRLSCAASGFIFPYYAMGWYRQAPGKERELVAAITSSGGRTYYADSVKGRFTISRDNAKNTVYFQMNSLKPEDTAVYYCAAYYLTPTDVEYDYWGQGTQVTVSS,high polyreactivity
9,QGQLVESGGGLVQAGGSLRLSCAASGSIFGENAMGWYRPAPGKERELVAAISSAGSTKYADSVKGRFTISRDNAKNTVYLQMNSLKPEDTAVYYCAAGYYRTSYPYSYYYWGQGTQVTVSS,low polyreactivity
10,QVQLVESGGGLVHAGGSLRLSCAASRSTFALNAMGWYRPAPGKERELVAAISRRGGSTYYADSVKGRFTISRDNAKNSVYLQMNSLKPEDTAVYYCAARYKRFTRFDYWGQGTQVTVSS,high polyreactivity
11,QVQLVESGGGLVQAGGSLRLSCAASGSIFQGYAMGWYRQAPGKERELVAGITSSGGSTHYADSVKGRFTISRDNAKNTVYLQMNSLKPEDTAVYDYWGQGTQVTVSS,low polyreactivity
12,QVQLVESGGGLVQAGGSLRLSCAASGLIFTPYAMGWYRQAPGKERELVAAISVSGGRTYYADSVKGRFTISRDNAKNTVYLQMNSLKPEDTAVYYCAASDRYGGRDYWGQGTQVTVSS,high polyreactivity
13,QVQLVESGGGLVQAGGSLRLSCAASGSIFYYNAMGWYRQAPGKERELVAAITRSGGRTYYADSVKGRFTISRDNAKTTVYLQMNSLKPEDTAVYSCAARSAGPVTTLKYYYWGHGTQVTVSS,high polyreactivity
14,QVQLVESGGGLVQAGGSLRLSCAASGRIFDDNAMGWYRQAPGKERELVADINNGTSTNYADSVKGRFTISRDNAKNTVYLQMNSLKPEDTAVYYCAADDYIYYRILGDSFVYKAYGYWGQGTQVTVSS,low polyreactivity
15,QVQLVESGGGLVQAGGSLRLSCAASGFTFYLNAMGWYRQAPGKERELVAAISYSDGSTYYADSVKGRFTISRDNAKNTVYLQMNRLKPEDTAVYFCAADTTDPGGAYQLMDYWGQGTQVTVSS,high polyreactivity
16,QVQLVESGGGLVQAGGSLRLSCAASGRTILHYAMGWYSQAPGKERELVASISSGVSTHYADSVKGRFTISRDNAKNTVYLQMNSLIPEDTAVYDCAARPYRIGRYGYDYDYWGQGTQVTVSS,high polyreactivity

row,Sequence,polyreactivity (PSR sort gate)
1,QVQLVESGGGLVQAGGSLRLSCAASGRIFYTYAMGWYRTAPGKERELVAAISSRTGSTYYADSVKWRFTISRDNAKNTVYLQMNSLKPEDTAVYYCNAYRLRYGYDYWGQGTQVTVSS,high polyreactivity
2,QVQLVESGGGLVQAGGSLRLSCAASGSTFYPNAMGGYRQAPGKERELVATITQRGGTTYYADSVKGRFTISRDNAKNTVYLQMNSLKPEDTAVYYCNAGPVRLPYDSWGQGTQVTVSS,low polyreactivity
3,QDQLVESGGGLVQAGGSLRLSCAASGSILVRNARGWYRQAPGKERELVASIDSGTSTNYADSVKGRFTISRDNAKTTVYLQLNSLKPEDTAVYYCAADWYYLWGRYYFWGQGTQVTVSS,high polyreactivity
4,QVQIVESGGGLVQAGGSLRLSCAASGSIFGANDMGWYRQAPGKERELVAAISTRGGRTYYADSVKGRFTISRDNEMNTVYLHMNSLKPEDTAVYYCDTSGGRPYKYEYWGQGTQVTVSS,high polyreactivity
5,QVQLLESGGGLVQAGGSLSLTCAASGSTFTRYVMGWYRQAPGTETELVAAISSNGGRTYYADSVKGRFTISRDNAKNTVDLQMTSLKPEDTAVYYCNLVRYAYNASVVYWGQGTQVTVSS,high polyreactivity
6,QVQLVESGGGLVQAGGSLRLSCAASGRTFDTNPMGWYRQAPGKERELVAVITARGGNTSYADSVKGRFTISRDNAKNTVYLQMNSLKPEDTAVYYCAARVYRAPWTYEEGNYWGQGTQVTVSS,low polyreactivity
7,QDQLEESGGGLVQEGGSLRLSCAASGFIFPRYAMGWYRQAPGKERELVAAISRSGGITRYADSVKGRFSISRDNAKNTVYLQMISLKPEDTAVYYCAAARSYWAKYYYWGQGTQVTVSS,high polyreactivity
8,QVQLVESGGGLVQAGGSLRLSCAASGFIFSTNAMGWYRQAPGKERELVATIRSGGSTNYADSVKGRFTISRDNAKNTVYLQMNSLKPEDTAVYYCAAEPPGSTYEGGYWGQGTQVTVSS,low polyreactivity
9,QVQLVESGGGLVQAGGSLRLSCAASGSIFTYYAMGWYRPAPGKERELVAAISSDGSTTYADSVKGRFTISRDNAKNTVYLQMNSLKPEDTAVYYCAASQFYFYYSPDGYDFWGQGTQVTVSS,low polyreactivity
10,QVQLVESGGGLVQAGGSLRLSCAASGFTFKGYAMGWYRQAPGKERELVAAITRGGSTYYADSVKGRFTISRDNAKNTVYLLMNSLKPEDTAVYYCAARGRGHGTTPNDYWGQGTQVTVSS,high polyreactivity
11,QVQLVESGGGLVQAGGSLRLSCAASGFIFKYNVMGWYRQAPGKERELVAAIRGSGRTYYADSVKGRFTISRDNAKNTVYLQMNSLKPEDTAVYYCGADIQAYASRVYAGFDYWGQGTQVTVSS,low polyreactivity
12,QVQLVESGGGIVQAGGSLRLSCAASGSTLQYNAMGWYRQAPGKERELVAAITRISGSTYYADSVKGRFTISRDNAKNTVYLQMNSLKPEHTAVYYCAAVSYYYSGYDYWGQGTEVTVSS,high polyreactivity
13,QVQHVESGGGLVQAGGSLRLSCAASGFIFDRYAMGWYRQAPGKERELVAAISSGGSTYYADSVKGRFTISRDNAKNTVYLQMNSLKPEDTAVYYCAAESWLNFIYEYDYWGQGTQVTVSS,low polyreactivity
14,QVQLVESGGGLVQAGGSLRLSCAASGRIFVRNAMGWYRQAPGKERELVAAITRTGASTYYADSVKGRFTISRDNAKNTVYLQMNSLKPEDTAVYYCAAVWGWPYWVYRYDYWGQGTQVTVSS,high polyreactivity
15,QVQLVESGGGLVQAGGSLRLSCAASGSIYGVKAMRWYRQAPGKERELVADITKSTGDTYADSVKGRFTISRDNAKNTVYLQMNSLKPEDTAGYYCNARVTVKQKRLYLYDFWGQGTQVTVSS,low polyreactivity
16,QVQLVESGGGLVQAGGSLRLSCAASGRIFWYNAMGWYRQAPGKERELVATITSAGDTNYADSVKGRFTISRDNAKNTVFLQMNSLKPEDTAVYYCAKYYRWLITRRGSNDYWGQGTQVTVSS,high polyreactivity

# — the nanobody polyreactivity screen of Harvey et al. (2022)
